Laboratory results from publication PMC12509757 (2025).

Biological target: BSA (Bos taurus (Bovine), UniProt P02769)
Assay: co-sedimentation (ultracentrifugation pelleting, immunoblot), BSA in place of microtubules as negative control

Chain of BSA (P02769 25-607): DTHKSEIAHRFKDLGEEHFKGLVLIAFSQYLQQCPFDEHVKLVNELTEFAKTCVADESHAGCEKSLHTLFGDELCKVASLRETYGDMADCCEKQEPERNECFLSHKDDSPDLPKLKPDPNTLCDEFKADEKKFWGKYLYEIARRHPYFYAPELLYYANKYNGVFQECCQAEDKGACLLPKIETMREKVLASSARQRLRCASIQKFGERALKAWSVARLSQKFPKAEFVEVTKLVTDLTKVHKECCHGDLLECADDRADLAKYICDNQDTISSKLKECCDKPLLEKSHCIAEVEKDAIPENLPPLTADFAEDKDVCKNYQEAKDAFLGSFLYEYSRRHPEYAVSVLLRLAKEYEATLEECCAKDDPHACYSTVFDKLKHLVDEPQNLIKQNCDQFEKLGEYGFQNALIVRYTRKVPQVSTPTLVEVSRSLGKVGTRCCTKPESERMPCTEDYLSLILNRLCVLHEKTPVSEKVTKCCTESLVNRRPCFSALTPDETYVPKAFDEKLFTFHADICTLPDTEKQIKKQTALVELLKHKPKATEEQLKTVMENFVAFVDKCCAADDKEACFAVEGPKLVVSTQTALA

B1: His GST BAR-PH (aa 1-388) of ARHGAP10, WT (protein)
chain: MGLQPLEFSDCYLDSPWFRERIRAHEAELERTNKFIKELIKDGKNLIAATKSLSVAQRKFAHSLRDFKFEFIGDAVTDDERCIDASLREFSNFLKNLEEQREIMALSVTETLIKPLEKFRKEQLGAVKEEKKKFDKETEKNYSLIDKHLNLSAKKKDSHLQEADIQVEQNRQHFYELSLEYVCKLQEIQERKKFEFVEPMLSFFQGMFTFYHQGHELAKDFNHYKMELQINIQNTRNRFEGTRSEVEELMNKIRQNPKDHKRASQFTAEGYLYVQEKRPAPFGSSWVKHYCMYRKAAKKFNMIPFEHRSGGKLGDGEVFFLKECTKRHTDSIDRRFCFDIEAADRPGVSLTMQAFSEEERKQWLEALGGKEALSHSFNTAIIPRPEGN
  binding result: no binding
